Data on 25 molecules can be found in EP2028187A1 (BOARD OF REGENTS, THE UNIVERSITY OF TEXAS SYSTEM, dated 2009).

The labels stand for the following.
B1: VISY peptide (…, SEQ ID NO:112) (peptide)
peptide: VVISYSMPD
B2: phage displaying … (SEQ ID NO:94) (peptide)
peptide: CARLEVLLPC
B3: phage displaying CFQNRC (SEQ ID NO:102) (peptide)
peptide: CFQNRC
B4: phage displaying CNLSSEQC (SEQ ID NO:103) (peptide)
peptide: CNLSSEQC
B5: phage displaying … (SEQ ID NO:95) (peptide)
peptide: YDWWYPWSW
B6: phage displaying … (SEQ ID NO:99) (peptide)
peptide: KVSWYLDNG
B7: phage displaying … (SEQ ID NO:98) (peptide)
peptide: YEWWYWSWA
B8: phage displaying … (SEQ ID NO:97) (peptide)
peptide: SDNRYIGSW
B9: phage displaying … (SEQ ID NO:96) (peptide)
peptide: GLDTYRGSP
B10: phage displaying … (SEQ ID NO:100), selected on β3 (peptide)
peptide: SDWYYPWSW
B11: phage displaying … (SEQ ID NO:93) (peptide)
peptide: CEQRQTQEGC
B12: phage displaying … (SEQ ID NO:104) (peptide)
peptide: CLRQSYSYNC
B13: Fyn-phosphorylated phage displaying … (SEQ ID NO:116) (peptide)
peptide: RAIL[pY]RLAN
modifications: also: tyrosine phosphorylated in vitro with Fyn kinase
B14: Fyn-phosphorylated phage displaying … (SEQ ID NO:121) (peptide)
peptide: TLRK[pY]FHSS
modifications: also: tyrosine phosphorylated in vitro with Fyn kinase
B15: phage displaying … (SEQ ID NO:127) (peptide)
peptide: CPKVCPRECESNC
B16: phage displaying … (SEQ ID NO:126) (peptide)
peptide: CLGQCASICVNDC
B17: phage displaying … (SEQ ID NO:125) (peptide)
peptide: CYNLCIRECESICGADGACWTWCADGCSRSC
B18: phage displaying … (SEQ ID NO:110) (peptide)
peptide: DEEGYYMMR
B19: phage displaying … (SEQ ID NO:112) (peptide)
peptide: VVISYSMPD
B20: phage displaying … (SEQ ID NO:105) (peptide)
peptide: CYIWPDSGLC
B21: phage displaying … (SEQ ID NO:109) (peptide)
peptide: CWDQNYLDDC
B22: phage displaying … (SEQ ID NO:111) (peptide)
peptide: KQFSYRYLL
B23: phage displaying … (SEQ ID NO:113), selected on β5 (peptide)
peptide: SDWYYPWSW
B24: phage displaying … (SEQ ID NO:106) (peptide)
peptide: CEPYWDGWFC
B25: CPRECESIC (SEQ ID NO:123) soluble peptide (peptide)
peptide: CPRECESIC
modifications: disulfide (positions not given here); also: mixture of disulfide isomers and dimers

Square brackets hold non-standard residues; d marks the D form. Ends that are not written are not given here. pY = N[C@@H](Cc1ccc(OP(=O)(O)O)cc1)C(=O)O

The target of the first test is GST-β5cyto (GST fusion protein of the integrin β5 cytoplasmic domain) (UniProt P18084). Kind of test: competition ELISA on GST-β5-coated plates, in the presence of calcium. (An ELISA detects its analyte on a solid surface through an enzyme-linked reagent.)
Chain of GST-β5cyto (GST fusion protein of the integrin β5 cytoplasmic domain) (P18084 other isoform, or with tags, fused parts or gaps): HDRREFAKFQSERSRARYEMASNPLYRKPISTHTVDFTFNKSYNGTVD
As for B1, the % inhibition of Annexin V binding to GST-β5 was determined as 67%.

For another test, the target named is T1, GST-β3cyto (GST fusion protein of the integrin β3 cytoplasmic domain) (UniProt O54890).
T1 sequence: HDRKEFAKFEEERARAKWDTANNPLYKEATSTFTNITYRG
In words: phage colonies recovered from β3-GST-coated wells divided by those from GST wells.
With B2, the β3/GST Ratio is 2.8.

Consider B3, for which the β3/GST Ratio was determined as 3.1.

With B4, the β3/GST Ratio came out at 2.7.

Take B5: the β3/GST Ratio was determined as 5.6.

As for B6, the β3/GST Ratio was 2.1.

As to B7, the β3/GST Ratio was determined as 2.2.

On to B8, for which the β3/GST Ratio is 3.3.

In the case of B9, the β3/GST Ratio was determined as 4.1.

Take B10: the β3/GST Ratio came out at 2.1.

Turning to B11, the β3/GST Ratio amounted to 4.3.

As to B12, the β3/GST Ratio worked out at 2.4.

For a further test, the target named is T1, GST-β3cyto (GST fusion protein of the integrin β3 cytoplasmic domain). In words: colonies of Fyn-phosphorylated phage divided by those of unphosphorylated phage bound to the β3 cytoplasmic domain.
On to B13, for which the Phos/Unphos worked out at 2.8.

The target is the same in the next test. In words: β3 colonies divided by GST colonies after panning.
Molecule B13 yielded a β3 or β5/GST of 1.3.

Another test concerns the target GST-β5cyto (GST fusion protein of the integrin β5 cytoplasmic domain) (UniProt P18084). In words: colonies of Fyn-phosphorylated phage divided by those of unphosphorylated phage bound to the β5 cytoplasmic domain.
As to B14, the Phos/Unphos amounted to 1.8.

In another test the target is Aminopeptidase A (APA, EC 3.4.11.7) on cells (UniProt Q07075). In words: phage binding to SK-RC-49/APA cells in suspension, phage rescued and counted (not shown).
Chain of Aminopeptidase A (APA, EC 3.4.11.7) on cells (UniProt Q07075) (Q07075 whole entry): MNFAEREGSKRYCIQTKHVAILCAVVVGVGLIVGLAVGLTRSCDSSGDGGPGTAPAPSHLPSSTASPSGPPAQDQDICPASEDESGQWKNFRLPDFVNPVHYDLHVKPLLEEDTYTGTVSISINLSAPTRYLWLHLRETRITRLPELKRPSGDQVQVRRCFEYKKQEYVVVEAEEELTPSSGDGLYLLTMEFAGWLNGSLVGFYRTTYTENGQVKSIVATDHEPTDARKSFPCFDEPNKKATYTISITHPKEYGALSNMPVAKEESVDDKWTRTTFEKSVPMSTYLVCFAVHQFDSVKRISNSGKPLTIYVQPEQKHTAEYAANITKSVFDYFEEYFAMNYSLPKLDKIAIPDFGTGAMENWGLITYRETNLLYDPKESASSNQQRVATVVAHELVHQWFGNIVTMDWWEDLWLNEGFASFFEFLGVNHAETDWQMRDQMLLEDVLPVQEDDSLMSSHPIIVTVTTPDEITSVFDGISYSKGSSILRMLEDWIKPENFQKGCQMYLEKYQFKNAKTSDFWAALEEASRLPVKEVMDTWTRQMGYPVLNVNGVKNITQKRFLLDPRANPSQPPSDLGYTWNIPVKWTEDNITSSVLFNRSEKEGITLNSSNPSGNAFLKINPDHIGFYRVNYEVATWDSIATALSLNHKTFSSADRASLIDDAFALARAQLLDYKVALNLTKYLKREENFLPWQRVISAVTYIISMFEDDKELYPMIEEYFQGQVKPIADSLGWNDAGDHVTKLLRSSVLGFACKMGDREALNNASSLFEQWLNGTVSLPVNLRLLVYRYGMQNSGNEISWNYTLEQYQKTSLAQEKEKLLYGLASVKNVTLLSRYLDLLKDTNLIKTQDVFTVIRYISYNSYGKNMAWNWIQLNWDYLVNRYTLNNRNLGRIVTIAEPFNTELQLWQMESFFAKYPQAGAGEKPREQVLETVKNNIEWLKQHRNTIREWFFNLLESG
For the molecule B15, the fold enrichment relative to SK-RC-49 parental cells came out at 6 fold.

Regarding B16, the fold enrichment relative to SK-RC-49 parental cells turned out to be 6 fold.

For B17, the fold enrichment relative to SK-RC-49 parental cells came to 6 fold.

The next test deals with GST-β5cyto (GST fusion protein of the integrin β5 cytoplasmic domain) (UniProt P18084). In words: phage colonies recovered from β5-GST-coated wells divided by those from GST wells.
With B18, the β5/GST Ratio amounted to 11.5.

On to B19, for which the β5/GST Ratio was found to be 3.8.

In the case of B20, the β5/GST Ratio stood at 5.2.

In the case of B21, the β5/GST Ratio is 1.5.

As to B22, the β5/GST Ratio was 4.5.

Turning to B23, the β5/GST Ratio was 2.4.

As to B24, the β5/GST Ratio was 3.1.

For the next test the target is unchanged. Kind of test: phage colonies recovered from β5-GST-coated wells divided by those from BSA wells.
B18: the β5/BSA Ratio was 29.

For B19, the β5/BSA Ratio came to 28.

Take B20: the β5/BSA Ratio was found to be 193.

For the molecule B21, the β5/BSA Ratio came to 100.

With B22, the β5/BSA Ratio was 8.

As for B23, the β5/BSA Ratio stood at 304.

As to B24, the β5/BSA Ratio is 400.

The target is the same in another test. In words: competition ELISA on GST-β5-coated plates, in the absence of calcium.
In the case of B1, the % inhibition of Annexin V binding to GST-β5 was 45%.

For a further test, the target named is Aminopeptidase A (APA, EC 3.4.11.7) on cells (UniProt Q07075 1-957, limits assumed). Kind of test: cell-based or functional assay.
Chain of Aminopeptidase A (APA, EC 3.4.11.7) on cells (UniProt Q07075 1-957, limits assumed) (Q07075 whole entry): as above
For the molecule B25, the “APA enzyme activity on SK-RC-49/APA cells (α-glutamyl-p-nitroanilide, colorimetric), IC50” value is 800 µM.

The next test deals with GST-β5cyto (GST fusion protein of the integrin β5 cytoplasmic domain) (UniProt P18084). Kind of test: β5 colonies divided by GST colonies after panning.
In the case of B14, the β3 or β5/GST came out at 5.6.

The target is the same in the next test. Kind of test: β5 colonies divided by BSA colonies after panning.
The molecule B14 showed a β3 or β5/BSA of 7.3.

A further test deals with T1, GST-β3cyto (GST fusion protein of the integrin β3 cytoplasmic domain). In words: phage colonies recovered from β3-GST-coated wells divided by those from BSA wells.
Turning to B2, the β3/BSA Ratio was 18.7.

On to B3, for which the β3/BSA Ratio turned out to be 16.

With B4, the β3/BSA Ratio came out at 62.

For the molecule B5, the β3/BSA Ratio was 163.

In the case of B6, the β3/BSA Ratio is 20.

In the case of B7, the β3/BSA Ratio was 28.1.

For B8, the β3/BSA Ratio came out at 32.

Take B9: the β3/BSA Ratio was 48.

Regarding B10, the β3/BSA Ratio was 157.

On to B11, for which the β3/BSA Ratio is 14.

Consider B12, for which the β3/BSA Ratio is 3.2.

For the next test the target is unchanged. Kind of test: β3 colonies divided by BSA colonies after panning.
In turn, B13 registered a β3 or β5/BSA of 20.
